What was measured:
tPA [1] = molecular target: T1, tPA (Homo sapiens, UniProt P00750); experiment: ELISA: binding of tPA to glycated albumin and Hb; details: g6p-glycated protein immobilized
T1 construct: purchased Boehringer-Ingelheim (Germany)
Procedure: Binding of tPA to albumin-g6p (four-week and 23-week incubations), albumin-glyceraldehyde, control albumin, human Hb-g6p (ten-week incubation), Hb control, or to Aβ (1-40) was tested using an enzyme-linked immunosorbent assay (ELISA) set-up. Albumin-g6p and control albumin (2.5 μg ml^−1 in coat buffer, 50 mM Na2CO3/NaHCO3 pH 9.6, 0.02% m/v NaN3, 50 μl/well) were immobilized for one hour at room temperature in 96-well protein Immobilizer plates (Exiqon, Vedbaek, Denmark). Aβ (1-40) (10 μg ml^−1 in coat buffer) was immobilized for 75 minutes at room temperature in a 96-well peptide Immobilizer plate (Exiqon, Vedbaek, Denmark). Control wells were incubated with coat buffer only. After a wash step with 200 μl of PBS/0.1% v/v Tween 20, plates were blocked with 300 μl of PBS/1% v/v Tween 20, for two hours at room temperature while shaking. All subsequent incubations were performed in PBS/0.1% v/v Tween 20 for one hour at room temperature while shaking, with volumes of 50 μl per well. After each incubation, wells were washed five times with 200 μl of PBS/0.1% v/v Tween 20. Increasing amounts of f.l. tPA or K2-P tPA was added in triplicate to coated wells and to control wells. […] Absorbance was read at 490 nm on a Vmax kinetic microplate reader (Molecular Devices, Sunnyvale, Calif., USA).

tPA [2] = molecular target: T1, tPA; experiment: ELISA: binding of tPA to 86-week glycated albumin-AGE preparations; details: albumin incubated 86 weeks; 10 mM εACA
Procedure: Binding of the cross-B structure marker tPA to albumin-AGE was tested using an ELISA setup. […] Therefore, we used tPA binding to these two peptides as positive control. The 86-week glycated samples and controls were coated to Greiner microlon plates (catalogue #655092, Greiner, Frickenhausen, Germany). Wells were blocked with Superblock (Pierce, Rockford, Ill., USA). All subsequent incubations were performed in PBS/0.1% (v/v) Tween 20 for one hour at room temperature while shaking, with volumes of 50 μl per well. After incubation, wells were washed five times with 300 μl PBS/0.1% (v/v) Tween 20. Increasing concentrations of tPA were added in triplicate to coated wells as well as to control wells. During tPA incubations of 86-week incubated samples, at least a 123,000 times molar excess of ε-amino caproic acid (εACA, 10 mM) was added to the solutions. εACA is a lysine analogue and is used to avoid potential binding of tPA to albumin via its kringle 2 domain.^50 Monoclonal antibody 374b (American Diagnostica, Instrumentation laboratory, Breda, The Netherlands) and, subsequently, RAMPO (Dako diagnostics, Glostrup, Denmark) was added to the wells at a concentration of 0.3 μg ml^−1. Bound peroxidase-labeled antibody was visualized using 100 μl of a solution containing 8 mg ortho-phenylene-diamine in 20 ml 50 mM citric acid/100 mM Na2HPO4 pH 5.0 with 0.0175% (v/v) H2O2. Staining was stopped upon adding 50 μl of a 2 M H2SO4 solution. Absorbance was read at 490 nm on a Vmax kinetic microplate reader (Molecular Devices, CA, USA). Background signals from non-coated control wells were substracted from corresponding coated wells.

[3] = Circular dichroism: percentage β-sheet (k2d software); type: physicochemical
Procedure: UV circular dichroism (CD) spectra of peptide and protein solutions ([…] in H2O) were measured on a JASCO J-810 CD spectropolarimeter (Tokyo, Japan). Averaged absorption spectra of five or ten single measurements from 190-240 nm or from 190-250 nm, for fibrin peptides 85, 86, 87 or for albumin, glycated albumin and human Aβ (16-22), respectively, are recorded. The CD spectrum of Aβ (16-22) was measured as a positive control. Aβ (16-22) readily adopts amyloid fiber conformation with cross-β structure when incubated in H2O^45. For albumin and Aβ (16-22), relative percentage of the secondary structure elements present was estimated using k2d software.^48

[4] = molecular target: T2, tPA-mediated plasminogen activation (Homo sapiens, UniProt P00750); experiment: Plasminogen activation assay; type: biochemical; details: 50 μg ml−1 CpB, 5 μM Aβ
T2 construct: purchased Boehringer-Ingelheim (Germany)
Procedure: Plasminogen (200 μg ml^−1) was incubated with tPA (200 pM) in the presence or the absence of a co-factor (5 μM of either endostatin, Aβ (1-40), or one the fibrin-derived peptides 85, 86 and 87). At the indicated time intervals, samples were taken and the reaction was stopped in a buffer containing 5 mM EDTA and 150 mM εACA. After collection of the samples, a chromogenic plasmin substrate S-2251 was added and plasmin activity was determined kinetically in a spectrophotometer at 37° C.

[5] = tested on: differentiated N1E-115 cells; experiment: N1E-115 cell detachment (methylene blue staining); type: cell-based, mouse; details: Aβ 10 μM, plasminogen 20 μg ml−1, CpB 1 μM, 24 hours
Procedure: FIG. 4 is a set of graphs illustrating stimulation of tPA-mediated plasmin formation by Aβ and synergistic stimulation of cell detachment by plasminogen and Aβ. Panel A depicts that plasminogen (200 μg/ml) and tPA (200 pM) were incubated with Aβ (5 μM) or control buffer. Samples were taken from the reaction mixture at the indicated periods of time and plasmin activity was measured by conversion of the chromogenic plasmin substrate S-2251 at 405 nm. […] After 48 hours, the dead cells were washed away and the remaining adherent cells were stained with methylene blue. Plasmin cannot prevent Aβ-induced cell detachment. Panel C illustrates that N1E-115 cells were differentiated and received the indicated concentrations of plasminogen in the presence or absence of 10 μM Aβ. After 24 hours, cell detachment was assessed. […] Panel D is an immunoblot analysis of plasmin formation and laminin degradation. Differentiated N1E-115 cells were treated with or without Aβ (10 μM) in the absence or presence of added plasminogen. Addition of Aβ results in the formation of plasmin (bottom panel) and in degradation of laminin (top panel).
(§1) FIG. 5 depicts graphs illustrating that carboxypeptidase B inhibits Aβ-stimulated tPA-mediated plasmin formation and cell detachment. […] Samples were taken from the reaction mixture at the indicated periods of time and plasmin activity was measured by conversion of the chromogenic plasmin substrate S-2251 at 405 nm. The reaction was performed in the absence or the presence of 50 μg ml^−1 carboxypeptidase B (CpB) and in the absence or presence of 3.5 μM carboxypeptidase inhibitor (CPI). CpB greatly attenuates A-stimulated plasmin formation. […] After 24 hours, the cells were photographed. Panel C illustrates that, subsequently, the cells were washed once with PBS and the remaining cells were quantified as percentage-adhered cells by methylene blue staining. In Panel D, the cells were treated as in Panels B and C and medium and cell fractions were collected and analyzed by Western blot using an anti-plasmin(ogen) antibody. Aβ stimulates plasmin formation that is inhibited by CpB.
N1E-115 mouse neuroblastoma cells were routinely cultured in DMEM containing 5% FCS, supplemented with antibiotics. Cells were differentiated into post-mitotic neurons.^52 The cells were exposed to Aβ (50 μg ml^−1) for 24 hours in the presence or absence of 20 μg ml^−1 plasminogen in the presence or absence of 50 μg ml^−1 CpB. Cells were photographed, counted and lysed by the addition of 4× sample buffer (250 mM Tris pH 6.8, 8% SDS, 10% glycerol, 100 mM DTT, 0.01% w/v bromophenol blue) to the medium. The lysate, containing both adherent and floating (presumably dying and/or dead) cells, as well as the culture medium, were analyzed for the presence of plasminogen and plasmin, as well as for laminin, by Western blot analysis using specific antibodies against plasminogen (MoAb 3642, American Diagnostics), laminin (PoAb L9393, Sigma).

[6] = tested on: Aβ-stimulated plasmin formation in N1E-115 cells; experiment: Western blot of plasmin formation in N1E-115 cultures; type: cell-based, mouse; details: co-incubation with CpB
Procedure: as §1
N1E-115 mouse neuroblastoma cells were routinely cultured in DMEM containing 5% FCS, supplemented with antibiotics. […] Cells were photographed, counted and lysed by the addition of 4× sample buffer (250 mM Tris pH 6.8, 8% SDS, 10% glycerol, 100 mM DTT, 0.01% w/v bromophenol blue) to the medium. […]

mΔIAPP = molecular target: T3, mΔIAPP (Mus musculus, UniProt P12968); experiment: Amyloid ELISA with tPA F-EGF-GST: non-amyloid control; type: binding
T3 construct: purchased Pepscan, Inc. or peptide synthesis facility of the Netherlands Cancer Institute; host or cells: chemical synthesis
Procedure: In order to define the affinity of the purified tPA F-EGF-GST recombinant protein, ELISAs were performed with immobilized amyloid (poly)peptides and non-amyloid control ΔmIAPP. Twenty-five μg ml^−1 of Aβ, FP13, IAPP or ΔmIAPP was immobilized on Exiqon peptide immobilizer plates. A concentration series of tPA F-EGF-GST in the presence of excess εACA was added to the wells and binding was assayed using anti-GST antibody Z-5. As a control, GST (Sigma-Aldrich, St. Louis, Mo., USA, catalogue #G-5663) was used at the same concentrations.

Aβ fibrils = molecular target: T4, Aβ fibrils (Homo sapiens, UniProt P05067); experiment: Amyloid pull-down with insoluble Aβ fibers; type: binding; details: conditioned BHK medium
T4 construct: Peptide Aβ (1-40), containing amino acids as present in the described human Alzheimer peptide; purchased Pepscan, Inc. (The Netherlands) or peptide synthesis facility at the Netherlands Cancer Institute; host or cells: synthetic peptide
Procedure: Conditioned medium of BHK cells expressing GST-tagged tPA F, F-EGF, EGF, K1, F-EGF-K1, FXII F, HGFa F, Fn F4, Fn F5, Fn F4-5 and GST was used for amyloid binding assays. At first, constructs were adjusted to approximately equal concentration using Western blots. Qualitative binding of the recombinant fragments were evaluated using a “pull-down” assay. To this end, the recombinantly made fragments were incubated with either Aβ or IAPP fibrils. Since these peptides form insoluble fibers, unbound proteins can be easily removed from the fibers following centrifugation. The pellets containing the bound fragments were subsequently washed several times. Bound fragments were solubilized in SDS-sample buffer and analyzed by PAGE, as were unbound proteins in the supernatant fraction and starting material. The gels were analyzed using immunoblotting analysis with the anti-GST antibody Z-5.

[7] = tested on: amyloid deposits in human brain inflicted by AD; experiment: Immunohistochemistry: binding of tPA F-EGF to human AD brain; details: 7 nM construct; Congo red fluorescence to locate amyloid
Procedure: Paraffin brain sections of a human inflicted with AD was a kind gift of Prof. Slootweg (Dept. of Pathology, UMC Utrecht). Sections were deparaffinized in a series of xylene-ethanol. Endogenous peroxidases were blocked with methanol/1.5% H2O2 for 15 minutes. After rinsing in H2O, sections were incubated with undiluted formic acid for ten minutes, followed by incubation in PBS for five minutes. Sections were blocked in 10% HPS in PBS for 15 minutes. Sections were exposed for two hours with 7 nM of tPA F-EGF-GST or GST in PBS/0.3% BSA. After three wash steps with PBS, sections were overlayed with 200 ng ml^−1 anti-GST antibody Z-5, for one hour. After washing, ready-to-use goat anti-rabbit Powervision (Immunologic, Duiven, The Netherlands, catalogue #DPVR-55AP) was applied and incubated for one hour. After washing, sections were stained for ten minutes with 3,3′-diamino benzidine (Sigma-Aldrich, St Louis, Mo., USA, catalogue #D-5905), followed by hematoxylin staining for ten seconds. After washing with H2O, sections were incubated with Congo red according to the manufacturer's recommendations (Sigma Diagnostics, St Louis, Mo., USA). […] Analysis of sections was performed on a Leica DMIRBE fluorescence microscope (Rijswijk, The Netherlands). Fluorescence of Congo red was analyzed using an excitation wavelength of 596 nm and an emission wavelength of 620 nm.

T1 sequence (P00750 36-562): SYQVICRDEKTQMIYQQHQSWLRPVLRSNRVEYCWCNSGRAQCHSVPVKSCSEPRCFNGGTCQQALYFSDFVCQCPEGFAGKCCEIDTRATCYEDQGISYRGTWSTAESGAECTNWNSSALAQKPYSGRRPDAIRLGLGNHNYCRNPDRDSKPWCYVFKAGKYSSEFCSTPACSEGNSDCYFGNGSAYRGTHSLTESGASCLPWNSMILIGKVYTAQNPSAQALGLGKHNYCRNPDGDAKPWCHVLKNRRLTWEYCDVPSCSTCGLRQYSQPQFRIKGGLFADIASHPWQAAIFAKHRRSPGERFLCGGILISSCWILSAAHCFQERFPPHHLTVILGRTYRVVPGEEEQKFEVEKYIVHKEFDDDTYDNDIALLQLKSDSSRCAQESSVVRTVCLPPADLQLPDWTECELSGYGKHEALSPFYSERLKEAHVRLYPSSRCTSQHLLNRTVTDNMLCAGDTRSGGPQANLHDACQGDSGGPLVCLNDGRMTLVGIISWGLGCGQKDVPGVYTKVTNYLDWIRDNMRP
T4 sequence (P05067 672-711): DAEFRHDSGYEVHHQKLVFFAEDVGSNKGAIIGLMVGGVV
T2 sequence (P00750 36-562): as the sequence (P00750 36-562) above

Albumin-g6p
tPA binding (tPA [1]): high-affinity tPA binding
binding of amyloid-specific serine protease tPA (tPA [2]): bound specifically
β-sheet (%) ([3]; incubation time 2 weeks): 0%
β-sheet (%) ([3]; incubation time 4 weeks): 7%
β-sheet (%) ([3]; incubation time 23 weeks): 19%

B1: CpB: porcine pancreas carboxypeptidase B from Roche (protein, UniProt P09955 111-416, looked up)
Carboxypeptidase B: TTGHSYEKYNNWETIEAWTKQVTSENPDLISRTAIGTTFLGNNIYLLKVGKPGPNKPAIFMDCGFHAREWISHAFCQWFVREAVLTYGYESHMTEFLNKLDFYVLPVLNIDGYIYTWTKNRMWRKTRSTNAGTTCIGTDPNRNFDAGWCTTGASTDPCDETYCGSAAESEKETKALADFIRNNLSSIKAYLTIHSYSQMILYPYSYDYKLPENNAELNNLAKAAVKELATLYGTKYTYGPGATTIYPAAGGSDDWAYDQGIKYSFTFELRDKGRYGFILPESQIQATCEETMLAIKYVTNYVLGHL
Aβ-stimulated generation of plasmin in the presence of CpB [4]: greatly diminished
cell detachment induced by plasminogen and Aβ [5]: completely prevented
Aβ-stimulated plasmin formation in the medium and on the cells [6]: complete inhibition

B2: tPA F-EGF-GST: tPA F-EGF domains with C-terminal GST tag, expressed in BHK cells and purified (protein)
chain: SYQVICRDEKTQMIYQQHQSWLRPVLRSNRVEYCWCNSGRAQCHSVPVKSCSEPRCFNGGTCQQALYFSDFVCQCPEGFAGKCCEID
modifications: left off: small tags and cut ends; a dimerising Fc or GST
notes: tPA F-EGF domains with C-terminal GST tag, expressed in BHK cells and purified
binding to non-amyloid mΔIAPP (mΔIAPP): No binding
binding to Aβ fibers (pull-down, Western blot) (Aβ fibrils): Efficient binding
binding to amyloid deposits in AD brain sections [7]: positive for tPA F-EGF-GST binding
